According to patent US12723100 (CSPC MEGALITH BIOPHARMACEUTICAL, dated 2026):
Residue numbers refer to the chain shown, from its start. Blank lines part the entries; values can stand above or below the binder they belong to.

Experiments:
[1] = target: T1, full-length human Nectin-4 on cells (human, UniProt Q96NY8 32-510); assay: cell-based or functional assay
T1 sequence: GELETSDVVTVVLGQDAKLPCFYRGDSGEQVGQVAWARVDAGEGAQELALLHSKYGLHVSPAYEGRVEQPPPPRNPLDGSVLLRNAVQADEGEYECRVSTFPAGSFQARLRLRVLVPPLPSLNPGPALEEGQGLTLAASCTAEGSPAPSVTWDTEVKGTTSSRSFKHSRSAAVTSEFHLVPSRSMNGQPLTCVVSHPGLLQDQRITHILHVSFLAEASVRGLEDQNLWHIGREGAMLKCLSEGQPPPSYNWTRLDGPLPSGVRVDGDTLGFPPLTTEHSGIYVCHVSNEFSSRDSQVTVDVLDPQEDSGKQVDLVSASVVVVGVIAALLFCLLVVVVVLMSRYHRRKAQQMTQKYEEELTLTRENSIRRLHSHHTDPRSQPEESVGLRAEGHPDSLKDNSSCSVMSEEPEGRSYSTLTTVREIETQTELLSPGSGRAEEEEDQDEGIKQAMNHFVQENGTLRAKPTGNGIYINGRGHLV

[2] = target: T1, full-length human Nectin-4 on cells; assay: flow cytometry, CHO-Nectin-4 cells
Experimental: (§1) The binding specificity of the disclosed anti-Nectin-4 antibodies was also assessed by FACS. Briefly, CHO-Nectin-4 cells (vs. parental CHO cells) or endogenous cell lines expressing Nectin-4 (T-47D) were incubated with dilutions of purified recombinant antibodies. Cells were washed, and specific antibody binding was detected with Alexa 647 labeled goat anti-mouse IgG antibody. Flow cytometric analysis was performed on a flow cytometry instrument (Intellicyte, IQue plus, Sartorius).
(§2) N4_mAb 1 to N4_mAb 8 antibodies bind to CHO-Nectin-4 cells and SKBR3 cells by FACS.

[3] = target: T1, full-length human Nectin-4 on cells; assay: flow cytometry, SKBR3 cells (endogenous Nectin-4)
Experimental: as §1, §2

[4] = target: T1, full-length human Nectin-4 on cells; assay: flow cytometry competition on CHO-Nectin-4 cells; competitor biotinylated human TIGIT
Experimental: The ability of disclosed Nectin4-specific antibodies to block TIGIT binding to CHO-Nectin-4 cells was assessed by FACS. Briefly, CHO-Nectin-4 cells were incubated with dilutions of the disclosed purified recombinant antibodies. Then, biotinylated human TIGIT protein (SinoBiologic, catalog: 10917-H08H-B, lot: LC13AP0902) was added to the plate. After 30-minute incubation, cells were washed, followed by adding Streptavidin Alexa 647 (1:1000) to the samples. After a 30 minute incubation, the samples were analyzed on a flow cytometry instrument (Intellicyte, IQue plus, Sartorius) for TIGIT blocking activity. The positive control antibody used in this blocking assay is PC2, a Nectin-4 antibody with known blocking activity.

[5] = target: T1, full-length human Nectin-4 on cells; assay: flow cytometry competition on CHO-Nectin-4 cells; competitor biotinylated human Nectin-1-His
Experimental: The ability of disclosed Nectin4-specific antibodies to block Nectin-1 binding to Nectin-4 expressing cells (CHO cells transfected with human Nectin-4) was determined by FACS. Briefly, CHO-Nectin-4 cells were incubated with dilutions of the disclosed Nectin-4 purified recombinant antibodies. Then, biotinylated human Nectin-1 with His tag (ACROBiosystems, catalog number: PV1-H5223, lot: 733-38GS1-47, 0.75 ug/ml) was added to the plate. After 30-minute incubation, cells were washed, followed by adding Streptavidin Alexa 647 (1:1000) to the samples. After a 30 minute incubation, the samples were analyzed on a flow cytometry instrument (Intellicyte, IQue plus, Sartorius) for Nectin-1 blocking activity. The positive control antibody used in this blocking assay is a reference antibody (known to be a recombinant Nectin-4 specific antibody, made by Novarock Biotherapeutics, lot: 03042020KD).

mouse Nectin-4 = target: T2, mouse Nectin-4 (mouse, UniProt Q8R007 31-508); assay: flow cytometry, transfected 293T cells; ++ EC50 between 5 nM and 25 nM
T2 construct: Transiently expressed on 293T cells; also called murine Nectin-4
T2 sequence: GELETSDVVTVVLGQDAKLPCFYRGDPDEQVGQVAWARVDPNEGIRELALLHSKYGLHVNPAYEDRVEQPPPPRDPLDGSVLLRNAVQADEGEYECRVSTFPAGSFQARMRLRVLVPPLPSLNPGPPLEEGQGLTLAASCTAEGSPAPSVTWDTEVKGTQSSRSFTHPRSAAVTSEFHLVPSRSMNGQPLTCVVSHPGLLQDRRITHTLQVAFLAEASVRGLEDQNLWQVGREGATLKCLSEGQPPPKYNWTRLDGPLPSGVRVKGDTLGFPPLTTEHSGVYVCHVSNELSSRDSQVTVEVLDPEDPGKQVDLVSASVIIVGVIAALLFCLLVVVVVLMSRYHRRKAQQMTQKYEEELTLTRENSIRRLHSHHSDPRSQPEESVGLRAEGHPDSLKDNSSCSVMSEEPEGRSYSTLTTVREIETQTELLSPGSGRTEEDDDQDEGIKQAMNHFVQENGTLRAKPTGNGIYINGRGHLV
Experimental: CDNAs encoding Nectin-4 protein from cynomolgus monkey (SEQ ID NO: 62), rat (SEQ ID NO: 63), or mouse (SEQ ID NO: 64) were separately cloned into a pcDNA3.1-based mammalian expression plasmid. The respective plasmids were transfected to human 293T cells in a similar way described in Example 6. The binding EC50 of disclosed human Nectin-4 antibodies to species-specific Nectin-4 transiently expressed on 293T cell surface was measured by flow cytometry.

EC50 [2]: 0.75 nM | EC50 [3]: 45 nM | EC50 [4]: 0.94 nM | EC50 [5]: 0.3 nM
B1: N4_mAb 3 (antibody, human IgG1, V domains shown)
VH: EVQLQQSGAELVKPGASVKLSCTVSGFNIKDTYMHWVKQRPEQGLEWIGRIDPANGNTKYDPKFQGKATIIADKASNTAYLQLSSLTSEDAAVYYCAHYYGSSYFAMDCWGQGTSVTVSS
VL: DIVMTQSHKFMSTSVGDRVSITCKASQDVSTAVAWYQQKPGQSPKLLIYWASTRHTGVPDRFTGSGSGTDYTLTISSVQTEDLALYYCQQHYSTPLTFGAGTKLELK
notes: Tested as chimera (human IgG1/kappa constants); not shown: human IgG1 constant region (Uniprot P01857); human Kappa light chain constant region (UniProt P01834)
Endocytosis EC50 (cell killing with MMAF-conjugated Fab anti-hFc), Nectin-4-CHO cells [1]: 0.53 nM | Endocytosis EC50 (cell killing with MMAF-conjugated Fab anti-hFc), SKBR3 cells [1]: 0.63 nM

EC50 [2]: 0.57 nM | EC50 [3]: 1.8 nM
B2: N4_mAb 4 (antibody, human IgG1, V domains shown)
VH: DVQLQESGPDLVKPSQSLSLTCTVTGYSITSAYNWHWIRQFPGNKLEWMGYIHYSGRTNYNPSLKSRISITRDTSKNQFFLQLNSLTTEDTATYYCARWITTATGWYLDVWGAGTTVTVSS
VL: not shown
notes: as for B1
Endocytosis EC50 (cell killing with MMAF-conjugated Fab anti-hFc), Nectin-4-CHO cells [1]: 0.63 nM | Endocytosis EC50 (cell killing with MMAF-conjugated Fab anti-hFc), SKBR3 cells [1]: 1.58 nM

EC50 [2]: 0.29 nM | EC50 [3]: 0.24 nM | EC50 [4]: 0.91 nM | EC50 [5]: 0.78 nM
B3: N4_mAb 1 (antibody, human IgG1, V domains shown)
VH: QVQLKQSGPGLVQPSQSLSITCTVSGFSLTNYGVNWVRQPPGKGLEWLGVIWSGGSTDYNAAFISRLSISKDISKSQVFFKMNSLQADDTAKYYCAREGYDGYAMDYWGQGTSVTVSS
VL: DIQMTQSPASLSVSVGETVTITCRASENIFSSLAWYQQKQGKSPQLLVYGATNLADGVPSRFSGSGSGTQYSLKINSLQSEDFGTYWCQHFWGNPWTFGGGTKLEIK
notes: Tested as chimera (murine variable regions, human IgG1/kappa constants); not shown: human IgG1 constant region (Uniprot P01857); human Kappa light chain constant region (UniProt P01834)
Endocytosis EC50 (cell killing with MMAF-conjugated Fab anti-hFc), Nectin-4-CHO cells [1]: 0.36 nM | Endocytosis EC50 (cell killing with MMAF-conjugated Fab anti-hFc), SKBR3 cells [1]: 2.14 nM

EC50 [2]: 0.12 nM | EC50 [3]: 0.04 nM | EC50 (mouse Nectin-4): 5 to 25 nM | EC50 [4]: 0.31 nM | EC50 [5]: 0.12 nM
B4: N4_mAb 6 (antibody, human IgG1, V domains shown)
VH: QVQLQQSGPELVKPGASVRISCKASGYTFTTYYIHWVKQRPGQGLEWIGWIYPGNVNTKYTENFKDKATLTADKSSSTAYMQLSSLTSEDSAVYFCARGLYYFDFWGQGTTLTVSS
VL: SIVMTQTPKFLLVSAGDRVTITCKASQSVNNDVAWYQQKPGQSPKLLIYYASNRDTGVPDRFTGSGFGTDFTFTISSVQAEDLAVYFCQQDYSSPYTFGGGTKLEIK
notes: as for B3
Endocytosis EC50 (cell killing with MMAF-conjugated Fab anti-hFc), Nectin-4-CHO cells [1]: 0.44 nM | Endocytosis EC50 (cell killing with MMAF-conjugated Fab anti-hFc), SKBR3 cells [1]: 1.78 nM

EC50 [2]: 0.23 nM | EC50 [3]: 0.05 nM | EC50 (mouse Nectin-4): 5 to 25 nM | EC50 [4]: 1.37 nM | EC50 [5]: 0.33 nM
B5: N4_mAb 8 (antibody, human IgG1, V domains shown)
VH: B4 VH with E10V, T31S, T61N, K65R, A79S, L100I, F105Y
VL: B4 VL with S1I, Q38E, F67Y, S77T, Q89H, Y96F, G100S
notes: as for B3
Endocytosis EC50 (cell killing with MMAF-conjugated Fab anti-hFc), Nectin-4-CHO cells [1]: 0.43 nM | Endocytosis EC50 (cell killing with MMAF-conjugated Fab anti-hFc), SKBR3 cells [1]: 0.99 nM

EC50 [2]: 0.18 nM | EC50 [3]: 0.05 nM | EC50 (mouse Nectin-4): 5 to 25 nM | EC50 [4]: 0.75 nM | EC50 [5]: 0.21 nM
B6: N4_mAb 7 (antibody, human IgG1, V domains shown)
VH: QVQLQQSGPELVKPGASVKMSCKASGYTFTTYYIHWVKQRPGQGLEWIGWIYPGNAGIKSNEKFKGKTTLTADKSSSTAYMLLSSLTSEDSAIYFCARGVYFFDYWGQGTTLTVSS
VL: B4 VL with A34S, Y36F, D55Y, T63S, F67Y, S76T, S77T
notes: as for B3
Endocytosis EC50 (cell killing with MMAF-conjugated Fab anti-hFc), Nectin-4-CHO cells [1]: 0.21 nM | Endocytosis EC50 (cell killing with MMAF-conjugated Fab anti-hFc), SKBR3 cells [1]: 0.61 nM

EC50 [2]: 0.64 nM | EC50 [3]: 1.8 nM | EC50 (mouse Nectin-4): 5 to 25 nM | EC50 [4]: 3.04 nM | EC50 [5]: 0.64 nM
B7: N4_mAb 2 (antibody, human IgG1, V domains shown)
VH: QVQLKQSGPNLVQPSQSLSITCTVSGFSLTTYGAHWVRQSPGKGLEWLGVIWRGGSTDYNAAFMSRLSITKDNSKSQVFFKMNSLQADDTAIYYCAKIGYDGYAMDNWGQGTSVTVSS
VL: DFQVTQSPASLSASVGETVTITCRTSENIHNYLAWYQQKQGKSPQLLVYNAKTLADGVPSRFSGSGSGTQYSLKINSLQPEDFGTYYCQHFWSSPWTFGGGTKLEIK
notes: as for B1
Endocytosis EC50 (cell killing with MMAF-conjugated Fab anti-hFc), Nectin-4-CHO cells [1]: 0.56 nM | Endocytosis EC50 (cell killing with MMAF-conjugated Fab anti-hFc), SKBR3 cells [1]: 0.74 nM

EC50 [2]: 0.38 nM | EC50 [3]: 0.52 nM | EC50 [4]: 3.11 nM | EC50 [5]: 0.5 nM
B8: N4_mAb 5 (antibody, human IgG1, V domains shown)
VH: EVQLQQSGPDLVKPGASVKISCKASGYSFTGHYMHWVKQSHGKSLEWIGRVNPNNGGSSYNQKFKDKAILTVDKSSTTAYMELRSLTSEDSAVYYCARDPLGGSYGFAYWGQGTLVTVSA
VL: DIVLTQSPASLAVSLGQRATISCRASQSVTTSSYSYMHWYQQKPGQPPKLLIKYASNLESGVPARFSGSGSGTDFTLNIHPVEEEDTATYYCQHSWEIPYTFGGGTKLEMK
notes: as for B1
Endocytosis EC50 (cell killing with MMAF-conjugated Fab anti-hFc), Nectin-4-CHO cells [1]: 0.45 nM | Endocytosis EC50 (cell killing with MMAF-conjugated Fab anti-hFc), SKBR3 cells [1]: 0.85 nM
